B1: VH:VL chains; a variant is named by its letters at X, in order (parent)
chain 1: QVQLVQSGAEVKKPGASVKVSCKASGYTFTDYXMHWVRQAPGQGLEWMGXVNPNXXXTTYNQKFEGRVTMTTDTSTSTAYMELRSLRSDDTAVYYCARXNXLDXWGQGTTVTVSS
chain 2: DIQMTQSPSSLSASVGDRVTITCSVSSSVSSIYLHWYQQKPGKAPKLLIYSTSNLASGVPSRFSGSGSGTDFTLTISSLQPEDFATYYCQVYSGYPLTFGGGTKVEIK

Variants of: B1
Test: yeast display scFab, FACS + sequencing
Summary of the method: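 The non-specific binding call was based on sorted and sequenced yeast displaying a heavy-chain CDR mutant scFab library. Labelling used anti-Myc with biotinylated ovalbumin (260 μg/mL in PBSB, 3 h, room temperature) or soluble membrane proteins (130 μg/mL, 20 min on ice), and FACS collected the top 25% and bottom 10% of binders in two replicates. Positive meant present in ≥3 of 4 pooled positive samples and in no negatives, and negative meant the converse.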

| Variant | non-specific binding call |
| --- | --- |
| FARGASGV | binds |
| DARGAYLV | no binding |
| DARGGAAV | no binding |
| DARGGAGA | no binding |
| YARGGAGA | no binding |
| DARGGAVV | no binding |
| DARGGAVY | no binding |
| DARGGDAA | no binding |
| FARGGDAV | no binding |
| DARGGDGS | no binding |
| YARGGDLD | no binding |
| DARGGDVY | no binding |
| DARGGDWV | no binding |
| DARGGFGV | no binding |
| FARGGSAD | no binding |
| DARGGSAD | no binding |
| DARGGSLD | no binding |
| DARGGSLS | no binding |
| DARGGSSA | no binding |
| DARGGSSS | no binding |
| DARGGSSV | no binding |
| DARGGSSY | no binding |
| VARGGSVD | no binding |

| Variant | non-specific binding call |
| --- | --- |
| FARGGYVA | binds |
| SARGGYWY | binds |
| YARGTAVD | binds |
| FARKGDGV | no binding |
| SARKGDVA | no binding |
| FARKGSGA | binds |
| VARKGVGV | binds |
| FARKSDSS | no binding |
| FARKSFGS | binds |
| FARKSYGA | binds |
| YARRAAVS | binds |
| YARRDVGA | binds |
| DARRGAGV | no binding |
| YARRGDGA | binds |
| SARRGDWA | binds |
| DARRGSGD | no binding |
| YARRGSGV | binds |
| YARRGSLD | binds |
| SARTDFWF | binds |
| SARTDFWF chain 1 K19N | binds |
| YARTGFGA | binds |
| YATAADAD | no binding |
| YATAADWD | no binding |

| Variant | non-specific binding call |
| --- | --- |
| YATEAFSD | binds |
| DATEDDSA | no binding |
| YATEDDWV | no binding |
| YATEDSGF | no binding |
| FATEGASA | no binding |
| YATEGVWV | binds |
| YATGDDGV | no binding |
| VATGDDGV | no binding |
| VATGDDVA | no binding |
| YATGDDVA | no binding |
| VATGDDVD | no binding |
| VATGDDVY | no binding |
| VATGDDWV | no binding |
| VATGDFGV | no binding |
| VATGDSLV | no binding |
| DATGGAAA | no binding |
| DATGGAGD | no binding |
| DATGGALD | no binding |
| DATGGASD | no binding |
| DATGGAVA | no binding |
| DATGGDAD | no binding |
| DATGGDGA | no binding |
| DATGGDGS | no binding |

| Variant | non-specific binding call |
| --- | --- |
| DATGGDGV | no binding |
| DATGGDGY | no binding |
| DATGGDVA | no binding |
| DATGGDVD | no binding |
| DATGGDVF | no binding |
| DATGGDVV | no binding |
| DATGGDVY | no binding |
| DATGGDWA | no binding |
| DATGGFGV | no binding |
| DATGGSGA | no binding |
| DATGGSGD | no binding |
| FATGGSGD | binds |
| DATGGSLD | no binding |
| DATGGSSA | no binding |
| DATGGSSS | no binding |
| DATGGSSV | no binding |
| DATGGSSY | no binding |
| DATGGSVD | no binding |
| DATGGYAV | no binding |
| YATGGYAV | no binding |
| VATGGYAV | no binding |
| DATGNVWS | binds |
| AATGSAWA | no binding |

| Variant | non-specific binding call |
| --- | --- |
| FATGSDGA | no binding |
| VATGSSGA | no binding |
| YATKGAWA | binds |
| FATKGAWV | binds |
| YATKGFGD | binds |
| FATKGFGD | binds |
| VATKGFVV | no binding |
| SATKTVVV | binds |
| FATRASGD | binds |
| VATRAVGA | binds |
| YATRGAAA | binds |
| DATRGAGD | no binding |
| DATRGAGY | no binding |
| VATRGFWD | no binding |
| VATRGYLV | binds |
| AATRNVGV | binds |
| DATRSSWD | no binding |
| AATTDAGD | no binding |
| AATTDDAV | no binding |

Source: the emibetuzumab library of Makowski et al. (2022)
